This note sets out measurements from PMC6335420, “The cell cycle regulator GpsB functions as cytosolic adaptor for multiple cell wall enzymes” (Nature Communications, 2019).

A word on the Kd: it is the constant that tells how readily two partners part at equilibrium. Low values mean higher affinity, high ones lower affinity.

The labels stand for the following.
T1: BsGpsB1-68 (B. subtilis, UniProt P0CI74 1-68)
T1 construct: GpsB, Bacillus subtilis, residues 1-68 (N-terminal domain); also called N-terminal domain of B. subtilis GpsB; wildtype BsGpsB1-68; source: E. coli BL21(DE3), purified (Ni-NTA, thrombin removal of the His6-tag, SEC); not shown: His6, N-terminal, cleaved
T1 sequence (looked up): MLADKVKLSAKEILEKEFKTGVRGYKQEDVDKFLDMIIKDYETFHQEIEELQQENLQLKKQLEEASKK

B1: Fluorescein-BsPBP11-32 Ala10Pro (peptide)
peptide: GSMADQFNSREPRRKANSKSSPSPKKGKKRKKC(fluorescein‑maleimide)G
notes: non-native N-terminal residues left by the recombinant method; PBP1 (ponA), Bacillus subtilis, residues 1-32; also called 31-labelled BsPBP1 1-32 A10P
B2: TAMRA-BsPBP11-32 Ser7Ala (peptide)
peptide: GSMADQFNAREARRKANC(TAMRA‑maleimide)KSSPSPKKGKKRKKGG
notes: non-native N-terminal residues left by the recombinant method; PBP1 (ponA), Bacillus subtilis, residues 1-32; also called BsPBP1 1-32 S7A
B3: Fluorescein-BsPBP11-32 wildtype (peptide)
peptide: GSMADQFNSREARRKANSKSSPSPKKGKKRKKC(fluorescein‑maleimide)G
notes: non-native N-terminal residues left by the recombinant method; PBP1 (ponA), Bacillus subtilis, residues 1-32, cytoplasmic mini-domain; also called BsPBP1 1-32 labelled with fluorescein at residue 31; 31-labelled peptide
B4: TAMRA-BsPBP11-32 Arg8Lys (peptide)
peptide: GSMADQFNSKEARRKANC(TAMRA‑maleimide)KSSPSPKKGKKRKKGG
notes: non-native N-terminal residues left by the recombinant method; PBP1 (ponA), Bacillus subtilis, residues 1-32; also called BsPBP1 1-32 R8K
B5: TAMRA-BsPBP11-32 Arg11Ala (peptide)
peptide: GSMADQFNSREAARKANC(TAMRA‑maleimide)KSSPSPKKGKKRKKGG
notes: non-native N-terminal residues left by the recombinant method; PBP1 (ponA), Bacillus subtilis, residues 1-32; also called BsPBP1 1-32 R11A
B6: TAMRA-BsPBP11-32 Ala10Pro (peptide)
peptide: GSMADQFNSREPRRKANC(TAMRA‑maleimide)KSSPSPKKGKKRKKGG
notes: non-native N-terminal residues left by the recombinant method; PBP1 (ponA), Bacillus subtilis, residues 1-32; also called BsPBP1 1-32 A10P
B7: TAMRA-BsPBP11-32 Arg8Ala (peptide)
peptide: GSMADQFNSAEARRKANC(TAMRA‑maleimide)KSSPSPKKGKKRKKGG
notes: non-native N-terminal residues left by the recombinant method; PBP1 (ponA), Bacillus subtilis, residues 1-32; also called BsPBP1 1-32 R8A
B8: TAMRA-BsPBP11-32 Arg28Ala (peptide)
peptide: GSMADQFNSREARRKANC(TAMRA‑maleimide)KSSPSPKKGKKAKKGG
notes: non-native N-terminal residues left by the recombinant method; PBP1 (ponA), Bacillus subtilis, residues 1-32; also called BsPBP1 1-32 R28A
B9: Fluorescein-BsPBP11-32 Arg28Ala (peptide)
peptide: GSMADQFNSREARRKANSKSSPSPKKGKKAKKC(fluorescein‑maleimide)G
notes: non-native N-terminal residues left by the recombinant method; PBP1 (ponA), Bacillus subtilis, residues 1-32; also called 31-labelled BsPBP1 1-32 R28A
B10: Fluorescein-BsPBP11-32 Arg8Ala (peptide)
peptide: GSMADQFNSAEARRKANSKSSPSPKKGKKRKKC(fluorescein‑maleimide)G
notes: non-native N-terminal residues left by the recombinant method; PBP1 (ponA), Bacillus subtilis, residues 1-32; also called 31-labelled BsPBP1 1-32 R8A

Residues, ends and D or L forms follow the SMILES beside them. No end group written: not given here. *: point of attachment. X1 = CN(C)c1ccc2c(-c3ccc(N4C(=O)CC(*)C4=O)cc3C(=O)[O-])c3ccc(=[N+](C)C)cc-3oc2c1; fluorescein‑maleimide = fluorescein attached via maleimide to Cys

One assay deals with T2, BsGpsB1-68 (Bacillus subtilis, UniProt P0CI74).
T2 construct: His6 (N, cleaved yes); made in house; host or cells: E. coli BL21(DE3)
Experiment: not given
It is filed as binding. As to conditions: FP. The text has this:
75 the BsGpsB5-64:BsPBP11-17 complex.
Turning to `CSCC[C@H](NC(=O)[C@H](CO)NC(=O)CN)C(=O)N[C@@H](C)C(=O)N[C@@H](CC(=O)O)C(=O)N[C@@H](CCC(N)=O)C(=O)N[C@@H](Cc1ccccc1)C(=O)N[C@@H](CC(N)=O)C(=O)N[C@@H](CO)C(=O)N[C@@H](CCCNC(=N)N)C(=O)N[C@@H](CCC(=O)O)C(=O)N[C@@H](C)C(=O)N[C@@H](CCCNC(=N)N)C(=O)N[C@@H](CCCNC(=N)N)C(=O)N[C@@H](CCCCN)C(=O)N[C@@H](C)C(=O)N[C@@H](CC(N)=O)C(=O)N[C@@H](CSC1CC(=O)N(c2ccc(-c3c4ccc(=[N+](C)C)cc-4oc4cc(N(C)C)ccc34)c(C(=O)[O-])c2)C1=O)C(=O)N[C@@H](CCCCN)C(=O)N[C@@H](CO)C(=O)N[C@@H](CO)C(=O)N1CCC[C@H]1C(=O)N[C@@H](CO)C(=O)N1CCC[C@H]1C(=O)N[C@@H](CCCCN)C(=O)N[C@@H](CCCCN)C(=O)NCC(=O)N[C@@H](CCCCN)C(=O)N[C@@H](CCCCN)C(=O)N[C@@H](C)C(=O)N[C@@H](CCCCN)C(=O)N[C@@H](CCCCN)C(=O)NCC(=O)NCC(=O)O` (some centres unmarked) [TAMRA-BsPBP11-32 Arg28Ala] (H-GSMADQFNSREARRKANC(X1)KSSPSPKKGKKAKKGG-OH), the “binding to BsGpsB1-68 (in words)” value is given as “no effect on binding”.

Still in this assay, the particulars now being: FP, relative to wild-type peptide.
For `CSCC[C@H](NC(=O)[C@H](CO)NC(=O)CN)C(=O)N[C@@H](C)C(=O)N[C@@H](CC(=O)O)C(=O)N[C@@H](CCC(N)=O)C(=O)N[C@@H](Cc1ccccc1)C(=O)N[C@@H](CC(N)=O)C(=O)N[C@@H](CO)C(=O)N[C@@H](CCCCN)C(=O)N[C@@H](CCC(=O)O)C(=O)N[C@@H](C)C(=O)N[C@@H](CCCNC(=N)N)C(=O)N[C@@H](CCCNC(=N)N)C(=O)N[C@@H](CCCCN)C(=O)N[C@@H](C)C(=O)N[C@@H](CC(N)=O)C(=O)N[C@@H](CSC1CC(=O)N(c2ccc(-c3c4ccc(=[N+](C)C)cc-4oc4cc(N(C)C)ccc34)c(C(=O)[O-])c2)C1=O)C(=O)N[C@@H](CCCCN)C(=O)N[C@@H](CO)C(=O)N[C@@H](CO)C(=O)N1CCC[C@H]1C(=O)N[C@@H](CO)C(=O)N1CCC[C@H]1C(=O)N[C@@H](CCCCN)C(=O)N[C@@H](CCCCN)C(=O)NCC(=O)N[C@@H](CCCCN)C(=O)N[C@@H](CCCCN)C(=O)N[C@@H](CCCNC(=N)N)C(=O)N[C@@H](CCCCN)C(=O)N[C@@H](CCCCN)C(=O)NCC(=O)NCC(=O)O` (some centres unmarked) [TAMRA-BsPBP11-32 Arg8Lys] (H-GSMADQFNSKEARRKANC(X1)KSSPSPKKGKKRKKGG-OH), the “reduction in affinity for BsGpsB1-68” value was “at least 5 fold”.
On the same count and under the same terms, in the case of `CSCC[C@H](NC(=O)[C@H](CO)NC(=O)CN)C(=O)N[C@@H](C)C(=O)N[C@@H](CC(=O)O)C(=O)N[C@@H](CCC(N)=O)C(=O)N[C@@H](Cc1ccccc1)C(=O)N[C@@H](CC(N)=O)C(=O)N[C@@H](CO)C(=O)N[C@@H](C)C(=O)N[C@@H](CCC(=O)O)C(=O)N[C@@H](C)C(=O)N[C@@H](CCCNC(=N)N)C(=O)N[C@@H](CCCNC(=N)N)C(=O)N[C@@H](CCCCN)C(=O)N[C@@H](C)C(=O)N[C@@H](CC(N)=O)C(=O)N[C@@H](CSC1CC(=O)N(c2ccc(-c3c4ccc(=[N+](C)C)cc-4oc4cc(N(C)C)ccc34)c(C(=O)[O-])c2)C1=O)C(=O)N[C@@H](CCCCN)C(=O)N[C@@H](CO)C(=O)N[C@@H](CO)C(=O)N1CCC[C@H]1C(=O)N[C@@H](CO)C(=O)N1CCC[C@H]1C(=O)N[C@@H](CCCCN)C(=O)N[C@@H](CCCCN)C(=O)NCC(=O)N[C@@H](CCCCN)C(=O)N[C@@H](CCCCN)C(=O)N[C@@H](CCCNC(=N)N)C(=O)N[C@@H](CCCCN)C(=O)N[C@@H](CCCCN)C(=O)NCC(=O)NCC(=O)O` (some centres unmarked) [TAMRA-BsPBP11-32 Arg8Ala] (H-GSMADQFNSAEARRKANC(X1)KSSPSPKKGKKRKKGG-OH) it was “at least 5 fold”.
With `CSCC[C@H](NC(=O)[C@H](CO)NC(=O)CN)C(=O)N[C@@H](C)C(=O)N[C@@H](CC(=O)O)C(=O)N[C@@H](CCC(N)=O)C(=O)N[C@@H](Cc1ccccc1)C(=O)N[C@@H](CC(N)=O)C(=O)N[C@@H](CO)C(=O)N[C@@H](CCCNC(=N)N)C(=O)N[C@@H](CCC(=O)O)C(=O)N[C@@H](C)C(=O)N[C@@H](C)C(=O)N[C@@H](CCCNC(=N)N)C(=O)N[C@@H](CCCCN)C(=O)N[C@@H](C)C(=O)N[C@@H](CC(N)=O)C(=O)N[C@@H](CSC1CC(=O)N(c2ccc(-c3c4ccc(=[N+](C)C)cc-4oc4cc(N(C)C)ccc34)c(C(=O)[O-])c2)C1=O)C(=O)N[C@@H](CCCCN)C(=O)N[C@@H](CO)C(=O)N[C@@H](CO)C(=O)N1CCC[C@H]1C(=O)N[C@@H](CO)C(=O)N1CCC[C@H]1C(=O)N[C@@H](CCCCN)C(=O)N[C@@H](CCCCN)C(=O)NCC(=O)N[C@@H](CCCCN)C(=O)N[C@@H](CCCCN)C(=O)N[C@@H](CCCNC(=N)N)C(=O)N[C@@H](CCCCN)C(=O)N[C@@H](CCCCN)C(=O)NCC(=O)NCC(=O)O` (some centres unmarked) [TAMRA-BsPBP11-32 Arg11Ala] (H-GSMADQFNSREAARKANC(X1)KSSPSPKKGKKRKKGG-OH), the “reduction in affinity for BsGpsB1-68” value was “at least 5 fold”.

The target of the next assay is T1, BsGpsB1-68. Kind of assay: fluorescence polarisation; GpsB protein titrated into TAMRA- or fluorescein-labelled peptide; 10 mM Tris.HCl pH 8.0, 250 mM NaCl, 0.1% reduced Triton X-100; all data fitted to a 1:1 interaction model, Kd ± standard error. As to conditions: both partners purified. (In general: In fluorescence polarisation assays a small probe gives low polarisation when free and higher when bound to something large.)
Turning to B1, the Kd was greater than 500 µM.
Still for that read-out and setting: in the case of B2 it was greater than 700 µM; in that of B3, 100 µM.
Still for that read-out and setting: in the case of B4 it was greater than 2000 µM; in that of B5, greater than 600 µM; in that of B6, greater than 1000 µM.
The same measure, in the same setting: in the case of B7 it was greater than 1700 µM; in that of B8, 90 µM; in that of B9, 130 µM.
With B10, the equilibrium dissociation constant (Kd) is greater than 500 µM.
